First the molecules themselves.
T1: EsCas13d, nuclease-dead (Eubacterium siraeum, UniProt B0MS50, R295A;H300A;R849A;H854A)
T1 sequence: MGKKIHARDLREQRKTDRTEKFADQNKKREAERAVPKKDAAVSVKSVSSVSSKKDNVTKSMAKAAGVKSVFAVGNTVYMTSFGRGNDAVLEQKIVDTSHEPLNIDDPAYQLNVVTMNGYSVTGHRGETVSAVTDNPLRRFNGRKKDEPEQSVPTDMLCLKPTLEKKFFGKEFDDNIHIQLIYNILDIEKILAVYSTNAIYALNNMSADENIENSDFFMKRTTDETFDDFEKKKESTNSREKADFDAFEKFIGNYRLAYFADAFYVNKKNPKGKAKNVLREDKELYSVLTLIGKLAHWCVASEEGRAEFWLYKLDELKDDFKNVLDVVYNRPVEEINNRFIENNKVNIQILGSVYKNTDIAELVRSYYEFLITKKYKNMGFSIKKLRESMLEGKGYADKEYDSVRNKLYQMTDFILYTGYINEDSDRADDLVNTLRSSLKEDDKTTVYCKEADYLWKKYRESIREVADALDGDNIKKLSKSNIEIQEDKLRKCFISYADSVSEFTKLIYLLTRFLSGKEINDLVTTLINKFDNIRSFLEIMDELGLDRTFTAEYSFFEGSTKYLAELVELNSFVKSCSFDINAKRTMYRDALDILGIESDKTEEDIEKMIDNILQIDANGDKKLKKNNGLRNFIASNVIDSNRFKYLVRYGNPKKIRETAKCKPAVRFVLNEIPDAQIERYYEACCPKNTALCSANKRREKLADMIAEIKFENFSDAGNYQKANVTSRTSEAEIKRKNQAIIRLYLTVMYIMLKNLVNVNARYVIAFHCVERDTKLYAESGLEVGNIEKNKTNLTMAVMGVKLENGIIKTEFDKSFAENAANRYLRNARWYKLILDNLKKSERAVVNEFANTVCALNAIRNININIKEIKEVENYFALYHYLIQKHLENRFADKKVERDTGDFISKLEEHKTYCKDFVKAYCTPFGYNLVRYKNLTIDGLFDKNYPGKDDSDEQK

B1: target 1 G15A,C21U (mixed)
RNA 1: CACCCGUGCAAAAAUGCAGGGGUCUAAAACUGAGCGGAUAACCUCUCUAUGG
RNA 2: GGGAAUGGAUCCACAUCUACGAAUUCGUACUAUAGAAAGGUUAUCCGCUCACCGAGAUCGGAAGAGCACACGU
B2: target 1 MT 5'PFS GCC 3'PFS AAU (mixed)
RNA 1: CACCCGUGCAAAAAUGCAGGGGUCUAAAACUGAGCGGAUAACCUCUCUAUGG
RNA 2: GGGAAUGGAUCCACAUCUACGAAUUCGCCCCAUAGAGAGGUUAUCCGCUCAAAUAGAUCGGAAGAGCACACGU
B3: target 1 MT 5'PFS GCG 3'PFS CAA (mixed)
RNA 1: CACCCGUGCAAAAAUGCAGGGGUCUAAAACUGAGCGGAUAACCUCUCUAUGG
RNA 2: GGGAAUGGAUCCACAUCUACGAAUUCGCGCCAUAGAGAGGUUAUCCGCUCACAAAGAUCGGAAGAGCACACGU
B4: target 1 MT 5'PFS GCG 3'PFS CAU (mixed)
RNA 1: CACCCGUGCAAAAAUGCAGGGGUCUAAAACUGAGCGGAUAACCUCUCUAUGG
RNA 2: GGGAAUGGAUCCACAUCUACGAAUUCGCGCCAUAGAGAGGUUAUCCGCUCACAUAGAUCGGAAGAGCACACGU
B5: target 1 MT 5'PFS CUA 3'PFS AUC (mixed)
RNA 1: CACCCGUGCAAAAAUGCAGGGGUCUAAAACUGAGCGGAUAACCUCUCUAUGG
RNA 2: GGGAAUGGAUCCACAUCUACGAAUUCCUACCAUAGAGAGGUUAUCCGCUCAAUCAGAUCGGAAGAGCACACGU
B6: target 1 MT 5'PFS CUA 3'PFS AUA (mixed)
RNA 1: CACCCGUGCAAAAAUGCAGGGGUCUAAAACUGAGCGGAUAACCUCUCUAUGG
RNA 2: GGGAAUGGAUCCACAUCUACGAAUUCCUACCAUAGAGAGGUUAUCCGCUCAAUAAGAUCGGAAGAGCACACGU
B7: target 1 MT 5'PFS CUA 3'PFS AUG (mixed)
RNA 1: CACCCGUGCAAAAAUGCAGGGGUCUAAAACUGAGCGGAUAACCUCUCUAUGG
RNA 2: GGGAAUGGAUCCACAUCUACGAAUUCCUACCAUAGAGAGGUUAUCCGCUCAAUGAGAUCGGAAGAGCACACGU
B8: target 1 MT 5'PFS CUA 3'PFS AUU (mixed)
RNA 1: CACCCGUGCAAAAAUGCAGGGGUCUAAAACUGAGCGGAUAACCUCUCUAUGG
RNA 2: GGGAAUGGAUCCACAUCUACGAAUUCCUACCAUAGAGAGGUUAUCCGCUCAAUUAGAUCGGAAGAGCACACGU
B9: target 1 MT 5'PFS AAG 3'PFS AUG (mixed)
RNA 1: CACCCGUGCAAAAAUGCAGGGGUCUAAAACUGAGCGGAUAACCUCUCUAUGG
RNA 2: GGGAAUGGAUCCACAUCUACGAAUUCAAGCCAUAGAGAGGUUAUCCGCUCAAUGAGAUCGGAAGAGCACACGU
B10: target 1 MT 5'PFS GUC 3'PFS CGU (mixed)
RNA 1: CACCCGUGCAAAAAUGCAGGGGUCUAAAACUGAGCGGAUAACCUCUCUAUGG
RNA 2: GGGAAUGGAUCCACAUCUACGAAUUCGUCCCAUAGAGAGGUUAUCCGCUCACGUAGAUCGGAAGAGCACACGU
B11: target 1 MT 5'PFS GCC 3'PFS AAA (mixed)
RNA 1: CACCCGUGCAAAAAUGCAGGGGUCUAAAACUGAGCGGAUAACCUCUCUAUGG
RNA 2: GGGAAUGGAUCCACAUCUACGAAUUCGCCCCAUAGAGAGGUUAUCCGCUCAAAAAGAUCGGAAGAGCACACGU
B12: target 1 MT 5'PFS GUC 3'PFS UCA (mixed)
RNA 1: CACCCGUGCAAAAAUGCAGGGGUCUAAAACUGAGCGGAUAACCUCUCUAUGG
RNA 2: GGGAAUGGAUCCACAUCUACGAAUUCGUCCCAUAGAGAGGUUAUCCGCUCAUCAAGAUCGGAAGAGCACACGU
B13: target 1 MT 5'PFS GCG 3'PFS CAC (mixed)
RNA 1: CACCCGUGCAAAAAUGCAGGGGUCUAAAACUGAGCGGAUAACCUCUCUAUGG
RNA 2: GGGAAUGGAUCCACAUCUACGAAUUCGCGCCAUAGAGAGGUUAUCCGCUCACACAGAUCGGAAGAGCACACGU
B14: target 1 U11G,G12U (mixed)
RNA 1: CACCCGUGCAAAAAUGCAGGGGUCUAAAACUGAGCGGAUAACCUCUCUAUGG
RNA 2: GGGAAUGGAUCCACAUCUACGAAUUCGUACCAUAGAGAGUGUAUCCGCUCACCGAGAUCGGAAGAGCACACGU
B15: target 1 MT 5'PFS GCC 3'PFS AAG (mixed)
RNA 1: CACCCGUGCAAAAAUGCAGGGGUCUAAAACUGAGCGGAUAACCUCUCUAUGG
RNA 2: GGGAAUGGAUCCACAUCUACGAAUUCGCCCCAUAGAGAGGUUAUCCGCUCAAAGAGAUCGGAAGAGCACACGU
B16: target 1 MT 5'PFS CCA 3'PFS ACU (mixed)
RNA 1: CACCCGUGCAAAAAUGCAGGGGUCUAAAACUGAGCGGAUAACCUCUCUAUGG
RNA 2: GGGAAUGGAUCCACAUCUACGAAUUCCCACCAUAGAGAGGUUAUCCGCUCAACUAGAUCGGAAGAGCACACGU
B17: target 1 MT 5'PFS GCG 3'PFS ACU (mixed)
RNA 1: CACCCGUGCAAAAAUGCAGGGGUCUAAAACUGAGCGGAUAACCUCUCUAUGG
RNA 2: GGGAAUGGAUCCACAUCUACGAAUUCGCGCCAUAGAGAGGUUAUCCGCUCAACUAGAUCGGAAGAGCACACGU
B18: target 1 MT 5'PFS GCG 3'PFS CAG (mixed)
RNA 1: CACCCGUGCAAAAAUGCAGGGGUCUAAAACUGAGCGGAUAACCUCUCUAUGG
RNA 2: GGGAAUGGAUCCACAUCUACGAAUUCGCGCCAUAGAGAGGUUAUCCGCUCACAGAGAUCGGAAGAGCACACGU
B19: target 1 insG 3' of 18,insC 3' of 13 (mixed)
RNA 1: CACCCGUGCAAAAAUGCAGGGGUCUAAAACUGAGCGGAUAACCUCUCUAUGG
RNA 2: GGGAAUGGAUCCACAUCUACGAAUUCGUACCAUAGGAGAGCGUUAUCCGCUCACCGAGAUCGGAAGAGCACACGU
B20: target 1 MT 5'PFS AAG 3'PFS AUC (mixed)
RNA 1: CACCCGUGCAAAAAUGCAGGGGUCUAAAACUGAGCGGAUAACCUCUCUAUGG
RNA 2: GGGAAUGGAUCCACAUCUACGAAUUCAAGCCAUAGAGAGGUUAUCCGCUCAAUCAGAUCGGAAGAGCACACGU
B21: target 1 MT 5'PFS GUC 3'PFS UCG (mixed)
RNA 1: CACCCGUGCAAAAAUGCAGGGGUCUAAAACUGAGCGGAUAACCUCUCUAUGG
RNA 2: GGGAAUGGAUCCACAUCUACGAAUUCGUCCCAUAGAGAGGUUAUCCGCUCAUCGAGAUCGGAAGAGCACACGU
B22: target 1 MT 5'PFS CCG 3'PFS CUG (mixed)
RNA 1: CACCCGUGCAAAAAUGCAGGGGUCUAAAACUGAGCGGAUAACCUCUCUAUGG
RNA 2: GGGAAUGGAUCCACAUCUACGAAUUCCCGCCAUAGAGAGGUUAUCCGCUCACUGAGAUCGGAAGAGCACACGU
B23: target 1 MT 5'PFS GCC 3'PFS AAC (mixed)
RNA 1: CACCCGUGCAAAAAUGCAGGGGUCUAAAACUGAGCGGAUAACCUCUCUAUGG
RNA 2: GGGAAUGGAUCCACAUCUACGAAUUCGCCCCAUAGAGAGGUUAUCCGCUCAAACAGAUCGGAAGAGCACACGU
B24: target 1 MT 5'PFS CCA 3'PFS ACG (mixed)
RNA 1: CACCCGUGCAAAAAUGCAGGGGUCUAAAACUGAGCGGAUAACCUCUCUAUGG
RNA 2: GGGAAUGGAUCCACAUCUACGAAUUCCCACCAUAGAGAGGUUAUCCGCUCAACGAGAUCGGAAGAGCACACGU
B25: target 1 MT 5'PFS AAG 3'PFS AUA (mixed)
RNA 1: CACCCGUGCAAAAAUGCAGGGGUCUAAAACUGAGCGGAUAACCUCUCUAUGG
RNA 2: GGGAAUGGAUCCACAUCUACGAAUUCAAGCCAUAGAGAGGUUAUCCGCUCAAUAAGAUCGGAAGAGCACACGU
B26: target 1 MT 5'PFS ACA 3'PFS CAU (mixed)
RNA 1: CACCCGUGCAAAAAUGCAGGGGUCUAAAACUGAGCGGAUAACCUCUCUAUGG
RNA 2: GGGAAUGGAUCCACAUCUACGAAUUCACACCAUAGAGAGGUUAUCCGCUCACAUAGAUCGGAAGAGCACACGU
B27: target 1 C2G,G17A (mixed)
RNA 1: CACCCGUGCAAAAAUGCAGGGGUCUAAAACUGAGCGGAUAACCUCUCUAUGG
RNA 2: GGGAAUGGAUCCACAUCUACGAAUUCGUACCAUAAAGAGGUUAUCCGCUGACCGAGAUCGGAAGAGCACACGU

This series addresses T1, EsCas13d, nuclease-dead. Briefly: crRNA (strand 1, pre-loaded); Mg2+; 40 mM Tris-HCl pH 7.5, 150 mM NaCl, 6 mM MgCl2, 1 mM DTT, 0.1% Tween-20, 0.2 mg/ml BSA; 25 C; 10 min per concentration, then washed. Particulars: tags: His6-TwinStrep-SUMO cleaved; N-terminal SNAP kept (SNAP-Surface 488); label: 3' end held by stalled T7 RNA polymerase.
By Kd is commonly meant a measure of binding affinity in units of concentration. Low readings indicate tighter binding, high ones weaker binding. Turning to B1, the affinity, expressed as Kd, was 6.9 ± 0.4 nM.

Molecule B2 displayed a Kd of around 27 nM.

As to B3, the Kd came out at 49.5 ± 24.5 nM.

Take B4: the Kd was around 29 nM.

In turn, B5 displayed a Kd of 14.2 ± 3.1 nM.

B6 displayed a Kd of 7.15 ± 1.5 nM.

B7 gave a Kd of 37 ± 10 nM.

Take B8: the affinity, expressed as Kd, was 6.05 ± 1.65 nM.

B9 displayed a dissociation constant (Kd) of 33 ± 8.5 nM.

The molecule B10 had a Kd of 13.2 ± 1.9 nM.

B11 gave a Kd of 59.5 ± 19 nM.

In the case of B12, the Kd was determined as 18.5 ± 5.5 nM.

Molecule B13 showed a Kd of around 42 nM.

Take B14: the equilibrium dissociation constant (Kd) was around 50 nM.

The molecule B15 had a Kd of 28 ± 6.5 nM.

Molecule B16 registered a Kd of 14 ± 5.5 nM.

The molecule B17 showed a Kd of 18.2 ± 3.9 nM.

For B18, the equilibrium dissociation constant (Kd) is around 56.5 nM.

B19 registered a Kd of 70 ± 24 nM.

B20 returned a Kd of 26.5 ± 10 nM.

In turn, B21 had a Kd of 14.4 ± 2.7 nM.

As for B22, the affinity, expressed as Kd, was 1.95 ± 0.465 nM.

For B23, the Kd is 23 ± 7.5 nM.

For the molecule B24, the affinity, expressed as Kd, was 3.95 ± 1.6 nM.

The molecule B25 registered a Kd of 26.6 ± 7.15 nM.

As to B26, the Kd is around 20 nM.

Consider B27, for which the Kd was 25 ± 1.9 nM.

The record behind these values is article PMC10786891, “Massively parallel profiling of RNA-targeting CRISPR-Cas13d”.
